According to patent US20220144960A1 (NANJING LEGEND BIOTECH, published 2022):

What was measured:
rhesus CD30 ECD = biological target: T1, rhesus CD30 ECD (rhesus, UniProt P28908 19-379 (human entry)); assay: ELISA on rhesus CD30 ECD protein; member of the group by paragraph 437
T1 construct: Produced in house; also called recombinant rhesus CD30; rhesus CD30 protein
T1 chain: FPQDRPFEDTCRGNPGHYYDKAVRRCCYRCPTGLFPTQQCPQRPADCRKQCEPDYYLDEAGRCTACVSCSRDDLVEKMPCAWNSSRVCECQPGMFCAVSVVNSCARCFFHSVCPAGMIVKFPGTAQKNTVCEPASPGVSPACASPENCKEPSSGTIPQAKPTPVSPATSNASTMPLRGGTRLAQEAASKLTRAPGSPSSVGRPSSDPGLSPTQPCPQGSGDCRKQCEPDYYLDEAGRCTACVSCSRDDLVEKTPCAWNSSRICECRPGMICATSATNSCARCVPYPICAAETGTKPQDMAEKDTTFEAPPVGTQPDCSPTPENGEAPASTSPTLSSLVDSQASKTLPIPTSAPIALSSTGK

[1] = biological target: T2, recombinant human CD30 extra cellular domain (ECD) protein (human, UniProt P28908 19-379); assay: SPR Biacore T200, His-tagged sdAb/Fab captured, 100.0 nM human CD30 as analyte, single curve
T2 construct: Bought from R&D systems; also called rhCD30; human CD30 ECD
T2 sequence: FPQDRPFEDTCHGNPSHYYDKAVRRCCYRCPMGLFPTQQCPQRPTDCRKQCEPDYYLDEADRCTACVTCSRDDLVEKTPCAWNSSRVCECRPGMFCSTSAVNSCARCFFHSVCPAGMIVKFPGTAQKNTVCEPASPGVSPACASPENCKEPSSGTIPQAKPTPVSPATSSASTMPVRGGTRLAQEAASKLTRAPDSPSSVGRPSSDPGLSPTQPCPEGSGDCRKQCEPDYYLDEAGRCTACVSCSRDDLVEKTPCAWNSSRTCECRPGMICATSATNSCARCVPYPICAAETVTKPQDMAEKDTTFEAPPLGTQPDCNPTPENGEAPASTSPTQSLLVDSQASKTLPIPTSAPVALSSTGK
Protocol: (§1) Some of these unique binders were subjected to for further characterization by surface plasmon resonance (SPR) on a BIAcore T200 instrument (GE Healthcare). The experiment was carried out as follows. The crude sdAb/Fab proteins were captured through an affinity tag (6×Histidine tag) onto the sensorchip. High-concentration (100.0 nM) of human CD30 (R&D systems, Cat. #6126-CD) flowed over the sensorchip surface, and were allowed to bind the antibody fragments for 300 s followed by injection of the running buffer to allow dissociation of the complex. On-rate ([…] and off-rate (kd) were roughly calculated based on one association and dissociation curve, and were used to estimate the equilibrium dissociation constant (KD). 5F11 scFv (SEQ ID NO:216, prepared according to WO2017066122) was used as a positive control. Data were summarized in Table 3 below. The first 10 antibodies in Table 3 were sdAbs with amino acid sequence ID numbers summarized in Table 1, the last antibody was 5F11 scFv, and the remainings were human Fabs with CDR and scFv amino acid sequence ID numbers in Table 2.

[2] = biological target: T3, human CD30 CRD1 (F19-Q68) Fc fusion protein with human IgG1 Fc fragment at the C terminus (human); assay: ELISA on the CD30 fragment CRD1, absorbance OD 450 nm; sdAb concentration not given
T3 construct: also called CRD1 construct

[3] = biological target: T3, human CD30 CRD1 (F19-Q68) Fc fusion …; assay: SPR, captured Fab, Fc-fused CRD protein as analyte
Protocol: as §1
(§2) Cysteine rich domains (CRDs) of human CD30 and the flanking residues, i.e., CRD1 (F19-Q68, SEQ ID NO: 3), CRD2 (R66-E107, SEQ ID NO: 4), CRD3 (E107-5153, SEQ ID NO: 5), CRD4 (E150-Q243, SEQ ID NO: 6), CRD5 (R241-E282, SEQ ID NO: 7) and CRD6 (E282-K379, SEQ ID NO: 8), were produced as Fc fusion proteins with human IgG1 Fc fragment (SEQ ID NO: 217) at the C terminus and used for epitope determination using SPR following the protocol similar to what was described above, only the analytes used were human IgG1 Fc-fused CRD proteins.

[4] = biological target: T4, human CD30 CRD2 (R66-E107) Fc fusion protein with human IgG1 Fc fragment at the C terminus (human); assay: SPR, captured Fab, Fc-fused CRD protein as analyte
T4 construct: also called CRD2 construct
Protocol: as §1, §2

[5] = biological target: T5, human CD30 CRD3 (E107-S153) Fc fusion protein with human IgG1 Fc fragment at the C terminus (human); assay: SPR, captured Fab, Fc-fused CRD protein as analyte
T5 construct: also called CRD3 construct
Protocol: as §1, §2

[6] = biological target: T6, human CD30 CRD4 (E150-Q243) Fc fusion protein with human IgG1 Fc fragment at the C terminus (human); assay: SPR, captured Fab, Fc-fused CRD protein as analyte
T6 construct: also called CRD4 construct
T6 sequence (chain, as listed by the source limits assumed): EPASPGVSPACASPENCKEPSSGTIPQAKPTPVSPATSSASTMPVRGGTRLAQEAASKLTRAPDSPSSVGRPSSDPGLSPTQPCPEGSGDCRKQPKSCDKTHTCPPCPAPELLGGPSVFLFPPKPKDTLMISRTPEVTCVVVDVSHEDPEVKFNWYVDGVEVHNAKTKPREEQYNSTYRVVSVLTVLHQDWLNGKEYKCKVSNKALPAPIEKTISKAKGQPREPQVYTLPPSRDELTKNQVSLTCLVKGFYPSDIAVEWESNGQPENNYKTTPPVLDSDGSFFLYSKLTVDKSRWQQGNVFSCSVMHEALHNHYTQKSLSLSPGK
Protocol: as §1, §2

[7] = biological target: T7, human CD30 CRD5 (R241-E282) Fc fusion protein with human IgG1 Fc fragment at the C terminus (human); assay: SPR, captured Fab, Fc-fused CRD protein as analyte
T7 construct: also called CRD5 construct
Protocol: as §1, §2

[8] = biological target: T8, human CD30 CRD6 (E282-K379) Fc fusion protein with human IgG1 Fc fragment at the C terminus (human); assay: SPR, captured Fab, Fc-fused CRD protein as analyte
T8 construct: also called CRD6 construct
T8 sequence (chain, as listed by the source limits assumed): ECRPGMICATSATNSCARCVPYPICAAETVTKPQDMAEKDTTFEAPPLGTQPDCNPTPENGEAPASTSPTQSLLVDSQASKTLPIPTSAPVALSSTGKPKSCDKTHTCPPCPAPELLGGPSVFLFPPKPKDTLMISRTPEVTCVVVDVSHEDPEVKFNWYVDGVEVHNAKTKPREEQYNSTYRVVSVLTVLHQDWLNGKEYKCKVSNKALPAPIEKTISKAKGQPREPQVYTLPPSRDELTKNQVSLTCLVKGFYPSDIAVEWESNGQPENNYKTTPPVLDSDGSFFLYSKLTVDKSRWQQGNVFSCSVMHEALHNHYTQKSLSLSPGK
Protocol: as §1, §2

B1: AS53445 sdAb (VHH)
VHH: QVQLVESGGGSVQAGGSLRLSCTASGYIFCMGWFRQAPGKAREGIATIYTGGDSTYYDDSVKGRFTISRDNAKNTVYLQMNSLKPEDTAMYYCAAGGQECYLTNWVSYWGQGTQVTVSS
notes: Camel sdAb
Rhesus CD30 ECD
  binding result: binds
[1]
  Kd: 80 nM
  koff: 0.0085 s⁻¹
  kon: 110000 M⁻¹ s⁻¹
  rhCD30 Binding (RU): 101 RU
[2]
  binding result: binds

B2: AS53574 sdAb (VHH)
VHH: QVKLVESGGGSVQAGGSLRLSCAASGYIYSSNCMGWFRQAPGKEREWVARIHTGSGSTYYADSVKGRFTISQDNAKNTVYLQMNSLRPEDTAMYDCAAGRVVLGAVVCTNEYWGQGTQVTVSS
notes: Camel sdAb
Rhesus CD30 ECD
  binding result: binds
[1]
  Kd: 3 nM
  koff: 0.00021 s⁻¹
  kon: 69000 M⁻¹ s⁻¹
  rhCD30 Binding (RU): 569 RU
[2]
  binding result: binds

B3: AS57765 human Fab (Fab, V domains shown)
VH: EVQLVESGGGLVQPGGSLRLSCAASGFNIYYSYMHWVRQAPGKGLEWVAYIYPYSGSTSYADSVKGRFTISADTSKNTAYLQMNSLRAEDTAVYYCARPAVHWHGYGGGYYYGLDYWGQGTLVTVSS
VL: DIQMTQSPSSLSASVGDRVTITCRASQSVSSAVAWYQQKPGKAPKLLIYSASSLYSGVPSRFSGSRSGTDFTLTISSLQPEDFATYYCQQAYYSLITFGQGTKVEIK
notes: Human Fab from a synthetic human Fab library, crude protein from E. coli with 6xHistidine tag
[3]
  binding result: no binding
[4]
  binding result: no binding
[5]
  binding result: no binding
[6]
  binding result: no binding
[7]
  binding result: no binding
[8]
  binding result: no binding
Rhesus CD30 ECD
  binding result: binds
[1]
  Kd: 11 nM
  koff: 0.0011 s⁻¹
  kon: 98000 M⁻¹ s⁻¹
  rhCD30 Binding (RU): 37.7 RU

B4: AS57911 human Fab (Fab, V domains shown)
VH: EVQLVESGGGLVQPGGSLRLSCAASGFNISSSYIHWVRQAPGKGLEWVAYISSYYSYTYYADSVKGRFTISADTSKNTAYLQMNSLRAEDTAVYYCARGYPYGMDYWGQGTLVTVSS
VL: DIQMTQSPSSLSASVGDRVTITCRASQSVSSAVAWYQQKPGKAPKLLIYSASSLYSGVPSRFSGSRSGTDFTLTISSLQPEDFATYYCQQSHALITFGQGTKVEIK
notes: as for B3
[3]
  binding result: no binding
[4]
  binding result: no binding
[5]
  binding result: no binding
[6]
  binding result: no binding
[7]
  binding result: no binding
[8]
  binding result: no binding
Rhesus CD30 ECD
  binding result: binds
[1]
  Kd: 170 nM
  koff: 0.015 s⁻¹
  kon: 92000 M⁻¹ s⁻¹
  rhCD30 Binding (RU): 44.6 RU

B5: AS57659 human Fab (Fab, V domains shown)
VH: EVQLVESGGGLVQPGGSLRLSCAASGFNIYSYYIHWVRQAPGKGLEWVASIYSSYSSTYYADSVKGRFTISADTSKNTAYLQMNSLRAEDTAVYYCARSWFSYPGLDYWGQGTLVTVSS
VL: DIQMTQSPSSLSASVGDRVTITCRASQSVSSAVAWYQQKPGKAPKLLIYSASSLYSGVPSRFSGSRSGTDFTLTISSLQPEDFATYYCQQPYYLITFGQGTKVEIK
notes: as for B3
[3]
  binding result: no binding
[4]
  binding result: no binding
[5]
  binding result: no binding
[6]
  binding result: no binding
[7]
  binding result: no binding
[8]
  binding result: no binding
Rhesus CD30 ECD
  binding result: binds
[1]
  Kd: 27 nM
  koff: 0.0022 s⁻¹
  kon: 82000 M⁻¹ s⁻¹
  rhCD30 Binding (RU): 83.6 RU
